B1: His6-T7-HSV tagged full-length V0c-subunit (natural protein, rat, UniProt P63081 1-155, looked up)
chain: MADIKNNPEYSSFFGVMGASSAMVFSAMGAAYGTAKSGTGIAAMSVMRPELIMKSIIPVVMAGIIAIYGLVVAVLIANSLTDGITLYRSFLQLGAGLSVGLSGLAAGFAIGIVGDAGVRGTAQQPRLFVGMILILIFAEVLGLYGLIVALILSTK
notes: V-ATPase V0 sector subunit c (V0c), full length; also called HSV-V0c; 6His-V0c; source: E. coli OverExpress C43(DE3), membranes solubilized in 2% FosCholine-12, purified (Ni-NTA)
B2: Full-length V0c-L3.4s mutant (V0c with scrambled loop 3.4) (natural protein, rat, UniProt P63081 1-155, looked up)
chain: B1 chain with V118Q, R119A, G120T, T121V, A122Q, Q123P, Q124L, P125G, L127R
notes: Cloned in pET28 (EcoR1/Sal1); source: E. coli OverExpress C43(DE3), purified (Ni-NTA)
B3: Complexin1-His (natural protein, rat, UniProt P63041 1-134, looked up)
chain: MEFVMKQALGGATKDMGKMLGGDEEKDPDAAKKEEERQEALRQAEEERKAKYAKMEAEREVMRQGIRDKYGIKKKEEREAEAQAAMEANSEGSLTRPKKAIPPGCGDEPEEEDESILDTVIKYLPGPLQDMFKK
notes: also called His-tagged complexin; source: E. coli BL21, purified
B4: Complexin1-GST (natural protein, rat, UniProt P63041 1-134, looked up)
chain: B3 chain
notes: Legends call it GST-complexin although GST stands downstream of complexin in the construct; also called GST-complexin; immobilized complexin; source: E. coli BL21, purified; not shown: GST, C-terminal, kept
B5: V0c L1.2 peptide (aa 35-KSGTGIAAMSVMRPELIMKS-54) (peptide)
peptide: KSGTGIAAMSVMRPELIMKS
notes: V0c cytosolic loop 1.2; printed as aa 35-54; also called loop 1.2 peptide; free L1.2 peptide; source: synthetic peptide (Genecust)

What all share (settings): both partners purified
Assay [1] concerns the target T1, GST-V0d1 (rat, UniProt Q5M7T6 1-351).
T1 construct: rat V-ATPase V0 sector subunit d1 (V0d1), amplified from an adult rat brain cDNA library and inserted EcoR1/Sal1 into pGEX-5x-1; the forward primer begins at the codon after the first methionine (SFFPEL), the reverse primer ends at the stop codon; also called immobilized V0d1; source: E. coli BL21, purified (Glutathione-Sepharose)
Nature of the assay: ELISA; V0c, VAMP2, t-SNARE, complexin, trimeric SNARE complex with or without complexin immobilized; GST-V0d1 or GST 50 nM; detected with anti-GST; GST binding subtracted.

For assay [2], the target named is T1, GST-V0d1. Nature of the assay: SPR; GST-V0d1 and GST amine-coupled on consecutive flow cells; V0c (50 nM, with or without 2 µM soluble GST-V0d1), V0c L1.2s or V0c L3.4s injected; 25 °C; GST signal subtracted. In general terms: Surface plasmon resonance follows binding to a sensor surface in real time, without labels.
The target in assay [3] is B1. Nature of the assay: ELISA; His-tagged complexin immobilized (1 µg/well); V0c 20 nM with or without VAMP2 100 nM, overnight 4 °C in 50 mM Tris-HCl pH 7.5, 150 mM NaCl, 3% BSA, 0.1% Triton X-100; detected with anti-HSV.
In assay [4] the target is B1. Nature of the assay: SPR; Complexin1-GST and GST amine-coupled on the chip; V0c, V0c L1.2s or V0c L3.4s 50 nM injected for 2 min; 25 °C, HBS with or without 0.2% CHAPS; GST signal subtracted.
Assay [5] concerns the target B2. The description is as above.
The target of the assay “Complexin1-GST” is B4. Nature of the assay: SPR; competition: V0c 100 nM preincubated or not with L1.2 or L3.4 peptides (10 µM) and injected on immobilized GST-complexin; 25 °C.
The target of assay [6] is T1, GST-V0d1. Nature of the assay: SPR; competition: V0c 50 nM injected over immobilized GST-V0d1 in the presence of an excess of GST or GST-complexin, or of L1.2 or L3.4 peptides; GST flow cell subtracted.

Where a chain is given by its changes, count along the chain named.

T1 sequence (Q5M7T6 entry or part of it): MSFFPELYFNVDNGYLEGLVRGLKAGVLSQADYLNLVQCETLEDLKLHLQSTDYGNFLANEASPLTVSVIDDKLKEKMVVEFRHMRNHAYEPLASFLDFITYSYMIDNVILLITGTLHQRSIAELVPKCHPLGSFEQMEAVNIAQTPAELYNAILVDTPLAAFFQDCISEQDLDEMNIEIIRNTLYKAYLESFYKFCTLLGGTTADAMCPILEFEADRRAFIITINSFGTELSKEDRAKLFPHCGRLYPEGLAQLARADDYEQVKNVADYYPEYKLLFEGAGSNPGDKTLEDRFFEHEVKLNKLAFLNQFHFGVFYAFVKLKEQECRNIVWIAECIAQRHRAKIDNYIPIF

B1: the binding result with GST-V0d1 [1] is reported as “binds”.

On to B2, for which, in the assay with GST-V0d1 [2], the binding result is given as “binds”.

Consider B3, for which, in assay [3], the binding result was “binds”.

As for B4, the binding result in assay [4] and in assay [5] was “binds” in each case.

Turning to B5, the binding result in the assay with Complexin1-GST and with GST-V0d1 [6] was “binds” in each case.
